In publication PMC8897147:

What was measured:
Assay in all cases: FRET or BRET
[1] = target: SV1, splice variant of GHRHR, -Rluc8
[2] = target: secretin receptor-Rluc8, P47872; conditions: remark: other sources report otherwise
[3] = target: T1, glucagon-like peptide-1 receptor-Rluc8, P43220; conditions: remark: other sources report otherwise
T1 chain: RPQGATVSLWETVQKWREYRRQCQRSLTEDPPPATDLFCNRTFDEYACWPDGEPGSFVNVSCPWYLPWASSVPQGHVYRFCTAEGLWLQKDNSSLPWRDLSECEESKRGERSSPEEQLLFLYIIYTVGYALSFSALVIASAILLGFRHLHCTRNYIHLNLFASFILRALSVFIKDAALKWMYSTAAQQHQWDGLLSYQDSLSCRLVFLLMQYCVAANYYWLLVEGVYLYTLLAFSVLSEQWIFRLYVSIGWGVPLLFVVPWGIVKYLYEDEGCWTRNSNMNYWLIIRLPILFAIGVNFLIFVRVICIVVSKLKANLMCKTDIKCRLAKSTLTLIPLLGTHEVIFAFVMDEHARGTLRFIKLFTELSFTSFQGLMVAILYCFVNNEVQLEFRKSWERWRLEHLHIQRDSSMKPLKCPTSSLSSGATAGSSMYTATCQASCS

[4] = target: T2, growth hormone-releasing hormone receptor-Rluc8, Q02643; conditions: remark: other sources report otherwise
T2 chain: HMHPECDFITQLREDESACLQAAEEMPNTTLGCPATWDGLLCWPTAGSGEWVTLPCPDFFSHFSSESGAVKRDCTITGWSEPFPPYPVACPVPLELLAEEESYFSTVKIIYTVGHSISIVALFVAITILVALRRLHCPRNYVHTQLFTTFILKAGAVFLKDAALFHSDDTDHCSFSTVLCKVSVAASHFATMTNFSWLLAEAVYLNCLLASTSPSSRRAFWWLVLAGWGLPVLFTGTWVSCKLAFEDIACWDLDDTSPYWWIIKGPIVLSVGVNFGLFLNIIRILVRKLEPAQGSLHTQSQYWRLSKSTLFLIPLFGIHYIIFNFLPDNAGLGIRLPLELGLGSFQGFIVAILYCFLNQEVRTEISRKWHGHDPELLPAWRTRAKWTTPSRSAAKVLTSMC

Chain of secretin receptor-Rluc8, P47872 (P47872 23-440): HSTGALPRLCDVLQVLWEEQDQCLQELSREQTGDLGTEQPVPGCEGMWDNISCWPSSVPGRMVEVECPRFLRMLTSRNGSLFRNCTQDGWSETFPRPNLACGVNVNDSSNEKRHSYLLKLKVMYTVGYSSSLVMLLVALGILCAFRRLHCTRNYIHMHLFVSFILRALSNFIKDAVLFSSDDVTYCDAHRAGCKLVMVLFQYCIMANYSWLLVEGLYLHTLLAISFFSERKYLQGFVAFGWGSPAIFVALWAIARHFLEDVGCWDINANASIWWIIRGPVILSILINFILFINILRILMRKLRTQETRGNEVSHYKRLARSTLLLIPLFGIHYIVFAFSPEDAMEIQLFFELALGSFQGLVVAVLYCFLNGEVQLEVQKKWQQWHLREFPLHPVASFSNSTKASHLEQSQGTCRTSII

B1: RAMP3-Ypet (receptor activity-modulating protein 3) (natural protein)
chain: RAGGCNETGMLERLPLCGKAFADMMGKVDVWKWCNLSEFIVYYESFTNCTEMEANVVGCYWPNPLAQGFITGIHRQFFSNCTVDRVHLEDPPDEVLIPLIVIPVVLTVAMAGLVVWRSKRTDTLL
- BRET50 (Kd) (intensity ratio of RAMP:receptor) [1]: 5.98

B2: RAMP1-Ypet (receptor activity-modulating protein 1), O60894 27-148 (natural protein)
chain: CQEANYGALLRELCLTQFQVDMEAVGETLWCDWGRTIRSYRELADCTWHMAEKLGCFWPNAEVDRFFLAVHGRYFRSCPISGRAVRDPPGSILYPFIVVPITVTLLVTALVVWQSKRTEGIV
- BRET50 (Kd) (intensity ratio of RAMP:receptor) [2]: 1.3
- BRET50 (Kd) (intensity ratio of RAMP:receptor) [3]: 10.9
- BRET50 (Kd) (intensity ratio of RAMP:receptor) [4]: 2.43

B3: RAMP2-Ypet (receptor activity-modulating protein 2), O60895 43-175 (natural protein)
chain: QPLPTTGTPGSEGGTVKNYETAVQFCWNHYKDQMDPIEKDWCDWAMISRPYSTLRDCLEHFAELFDLGFPNPLAERIIFETHQIHFANCSLVQPTFSDPPEDVLLAMIIAPICLIPFLITLVVWRSKDSEAQA
- BRET50 (Kd) (intensity ratio of RAMP:receptor) [2]: 2.41
- BRET50 (Kd) (intensity ratio of RAMP:receptor) [3]: 2.23
